Assay in all cases: cell-based or functional assay
The target in test [1] is dog factor D (in dog serum) (dog). Conditions: scale: times less effective than on human factor D.
For test [2], the target named is baboon factor D (in baboon serum or plasma) (baboon).
In test [3] the target is human factor D purified from human serum (human) (UniProt P00746).

Data on 1 substance can be found in patent US20130171155A1.

Sequence of UniProt P00746 (P00746 26-253 N180D): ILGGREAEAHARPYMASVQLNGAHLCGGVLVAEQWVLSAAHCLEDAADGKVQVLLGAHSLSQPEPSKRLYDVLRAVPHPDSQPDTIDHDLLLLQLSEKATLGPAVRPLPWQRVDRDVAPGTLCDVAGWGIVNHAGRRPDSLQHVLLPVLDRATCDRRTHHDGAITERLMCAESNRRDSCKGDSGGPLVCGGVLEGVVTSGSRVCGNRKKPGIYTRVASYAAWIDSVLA

In turn, MAb 166-32 (antibody) came in with a neutralization of dog factor D in hemolytic assays in test [1] of more than 10. In test [2], this substance returned an inhibition of alternative complement hemolytic activity of baboon plasma, 18 hours after CPB of 79.3%. Moreover, in test [3], the alternative complement activity (hemolytic assay, unsensitized rabbit RBCs) in paired extracorporeal circuits was determined as 18 µg/mL; the alternative pathway hemolytic activity of plasma from extracorporeal circuits (human whole blood) (molar ratio (MAb:factor D)) is 1.5; the factor D dependent hemolysis of unsensitized rabbit RBCs (factor D depleted human serum with added factor D) amounted to 0.3 µg/mL.
